# Experimental data reported in US20120283421A1.
# Target: nine-person peanut-specific IgE antibody pool
# Experiment: competitive ELISA inhibition, pooled serum IgE on coated crude peanut
binder,measurement,value
"Ara h 2 (purified from peanut) (protein, 20% carbohydrate) QQWELQGDRRCQSQLERANLRPCEQHLMQKIQRDEDSYERDPYSPSQDPYSPSPYDRRGAGSSQHQERCCNELNEFENNQRCMCEALQQIMENQSDRLQGRQQEQQFKRELRNLPQQCGLRAPQRCDLDVESGGRDRY",IC50,0.4 ng/mL
